Drawing on patent US20200291066A1, this text covers decrease in binding for 1 molecule.

The target of assay [1] is T1, human IL-2Rβ (CD122 protein, Fc Tag) (27-239) (human), P14784.
T1 chain: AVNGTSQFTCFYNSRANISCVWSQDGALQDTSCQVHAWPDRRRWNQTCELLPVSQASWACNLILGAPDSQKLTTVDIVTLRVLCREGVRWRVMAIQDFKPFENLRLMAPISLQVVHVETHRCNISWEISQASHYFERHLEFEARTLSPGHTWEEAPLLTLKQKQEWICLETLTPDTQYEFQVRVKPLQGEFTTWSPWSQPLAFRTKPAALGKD
Kind of assay: pH-dependent ELISA (Examples 9-12). Background: ELISA stands for enzyme-linked immunosorbent assay.

The target of assay [2] is T1, human IL-2Rβ (CD122 protein, Fc Tag) …. Kind of assay: pH-dependent ELISA (Examples 9-12).

Where two headings read alike, the source gives them in different places. Ends that are not written are not given here. A value given as a limit tells only on which side of the number the result lay.

B1: SEQ ID NO 489 (peptide)
peptide: PGVQDCXIAHXGELCEFVWN
modifications: not fully specified; X: residue not identified in the source; ends and bridges not checked
On to B1, for which the decrease in binding at pH 7.5 compared to pH 6.0 in assay [1] is above 15%; in assay [2], above 50%.
